T1: GST-MEIOB construct A (Mus musculus, UniProt Q9D513 136-307)
T1 sequence: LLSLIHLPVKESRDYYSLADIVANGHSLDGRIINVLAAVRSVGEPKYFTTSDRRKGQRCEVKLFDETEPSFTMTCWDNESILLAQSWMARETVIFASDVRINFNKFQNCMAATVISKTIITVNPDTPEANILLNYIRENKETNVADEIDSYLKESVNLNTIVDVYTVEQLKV

B1: 5' flap (30 nt) (dsDNA)
DNA 1: GTGTGTGTGTGTGTGTGTGTGTGTGTGTGTGGACATCTTTGCCCACCTGCAGGTTCACCC
DNA 2: GGGTGAACCTGCAGGTGGGCAAAGATGTCC
B2: dsDNA 36 bp (dsDNA)
DNA 1: GTGTGTGTGTGTGTGTGTGTGTGTGTGTGTGTGTGT
DNA 2: ACACACACACACACACACACACACACACACACACAC
B3: 3' flap (30 nt) (dsDNA)
DNA 1: CGATAGTCGGATCCTCTAGACAGCTCCATGGTGTGTGTGTGTGTGTGTGTGTGTGTGTGT
DNA 2: CATGGAGCTGTCTAGAGGATCCGACTATCG

Key:
GST-MEIOB construct A [1] = target: T1, GST-MEIOB construct A; test: EMSA
GST-MEIOB construct A [2] = target: T1, GST-MEIOB construct A; test: EMSA; remark: listed apart in the source

Binder | binding result (GST-MEIOB construct A [1]) | Kd (GST-MEIOB construct A [2])
B1 | binds | 
GTGTGTGTGTGTGTGTGTGTGTGTGTGTGTGTGTGT (ssDNA) [d36GT] |  | 400 nM
B2 | no binding | 
B3 | binds | 

Reference: paper PMC3891831
